Assay results: patent US20200164020A1

Target: IFNβ in spent medium of HEp-2 cells transfected with siPUM1 (UniProt P01574)
Assay: cell-based or functional assay

Sequence of UniProt P01574 (P01574 22-187 limits assumed): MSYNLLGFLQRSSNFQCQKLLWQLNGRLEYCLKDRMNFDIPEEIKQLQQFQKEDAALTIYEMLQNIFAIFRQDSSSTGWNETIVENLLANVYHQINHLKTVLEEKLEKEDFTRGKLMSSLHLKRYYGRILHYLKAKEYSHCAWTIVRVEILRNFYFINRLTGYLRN

anti-IFNβ antibody (R&D Systems, MAB814-100)
accumulation of HSV-1 viral proteins (immunoblot) in HEp-2 cells exposed to siPUM1 spent medium pre-incubated with antibody, IFN neutralization assay: 2 to 4 fold
